Data: patent US20200368361A1 (Regeneron, published 2020)

T1: full length monkey MSR1 on HEK293.mfMSR1 cells (Macaca fascicularis, UniProt A0A2K5UWE2 1-451)
T1 construct: whole, on cells
T1 sequence: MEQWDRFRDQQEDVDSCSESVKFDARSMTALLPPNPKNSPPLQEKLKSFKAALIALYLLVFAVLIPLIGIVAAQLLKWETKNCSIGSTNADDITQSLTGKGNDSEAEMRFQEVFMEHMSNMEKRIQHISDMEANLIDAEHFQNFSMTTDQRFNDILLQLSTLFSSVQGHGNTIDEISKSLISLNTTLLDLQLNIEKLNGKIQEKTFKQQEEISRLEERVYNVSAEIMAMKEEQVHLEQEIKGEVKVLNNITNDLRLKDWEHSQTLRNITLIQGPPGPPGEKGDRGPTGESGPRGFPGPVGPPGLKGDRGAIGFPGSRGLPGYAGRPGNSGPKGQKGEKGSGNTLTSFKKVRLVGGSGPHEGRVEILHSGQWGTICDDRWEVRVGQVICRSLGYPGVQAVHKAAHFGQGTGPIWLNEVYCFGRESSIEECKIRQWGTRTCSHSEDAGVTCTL

T2: full length human MSR1 with a C-terminal Myc tag on HEK293.Myc.hMSR1 cells (human, UniProt P21757 1-451)
T2 construct: whole, on cells
T2 sequence (looked up): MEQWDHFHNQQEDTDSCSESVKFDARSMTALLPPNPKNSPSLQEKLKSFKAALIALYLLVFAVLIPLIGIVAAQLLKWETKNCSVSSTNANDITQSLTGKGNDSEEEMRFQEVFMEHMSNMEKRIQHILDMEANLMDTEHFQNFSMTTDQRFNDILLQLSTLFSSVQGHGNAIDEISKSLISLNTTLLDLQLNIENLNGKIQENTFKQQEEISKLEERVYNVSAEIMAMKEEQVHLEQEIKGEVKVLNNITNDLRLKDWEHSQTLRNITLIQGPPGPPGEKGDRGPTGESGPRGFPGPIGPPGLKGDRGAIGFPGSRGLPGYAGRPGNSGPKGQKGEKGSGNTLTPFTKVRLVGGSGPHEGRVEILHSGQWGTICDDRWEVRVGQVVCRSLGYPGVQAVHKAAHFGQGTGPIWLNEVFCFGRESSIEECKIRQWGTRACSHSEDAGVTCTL

T3: mouse MSR1 on RAW264.7 cells (mouse, UniProt P30204 1-458)
T3 construct: whole, on cells
T3 sequence (looked up): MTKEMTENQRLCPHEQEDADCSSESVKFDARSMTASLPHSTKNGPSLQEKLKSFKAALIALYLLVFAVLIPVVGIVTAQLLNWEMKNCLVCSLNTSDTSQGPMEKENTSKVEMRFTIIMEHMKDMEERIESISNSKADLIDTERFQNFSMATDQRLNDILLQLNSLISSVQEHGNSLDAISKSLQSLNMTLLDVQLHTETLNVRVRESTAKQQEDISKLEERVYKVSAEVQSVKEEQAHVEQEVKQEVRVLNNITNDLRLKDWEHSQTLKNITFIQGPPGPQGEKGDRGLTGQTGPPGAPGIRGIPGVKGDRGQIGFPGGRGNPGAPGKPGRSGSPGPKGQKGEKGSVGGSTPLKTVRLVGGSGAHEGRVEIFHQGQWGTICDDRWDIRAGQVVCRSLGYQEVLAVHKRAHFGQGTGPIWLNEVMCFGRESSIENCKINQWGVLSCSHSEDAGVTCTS

T4: human MSR1 with a C-terminal Myc tag expressed on HEK293.Myc.hMSR1 cells (human, UniProt P21757 1-451)
T4 sequence (looked up): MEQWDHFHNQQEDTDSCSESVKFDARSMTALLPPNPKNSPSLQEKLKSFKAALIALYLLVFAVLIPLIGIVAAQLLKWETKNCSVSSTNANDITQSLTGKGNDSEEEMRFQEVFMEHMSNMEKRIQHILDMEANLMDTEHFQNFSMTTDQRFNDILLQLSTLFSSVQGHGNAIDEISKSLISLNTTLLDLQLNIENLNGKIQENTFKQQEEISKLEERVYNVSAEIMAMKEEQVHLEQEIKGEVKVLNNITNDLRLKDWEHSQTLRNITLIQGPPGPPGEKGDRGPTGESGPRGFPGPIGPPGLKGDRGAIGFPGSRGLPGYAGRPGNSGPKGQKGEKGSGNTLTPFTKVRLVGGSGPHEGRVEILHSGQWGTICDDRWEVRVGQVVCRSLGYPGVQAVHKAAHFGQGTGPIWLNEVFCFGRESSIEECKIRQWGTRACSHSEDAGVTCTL


Tests used:
[1] = biological target: T1, full length monkey MSR1 on …; assay: ECL cell binding, HEK293.mfMSR1
Method: (§1) All cells were washed once with 1×PBS with Ca²⁺/Mg²⁺ and counted with a Cellometer™ Auto T4 cell counter (Nexcelom Bioscience). Approximately 1.0×10⁴ cells were seeded separately onto 96-well carbon electrode plates [MULTI-ARRAY high bind plate, Meso Scale Diagnostics] and incubated for 1 hour at 37° C. Non-specific binding sites were then blocked by 2% BSA (w/v) in PBS with Ca²⁺/Mg²⁺ for 1 hour at room temperature. THP-1 cells were pre-incubated for 0.5 hours at room temperature in sample dilution buffer with: 1) 1 mg/mL Fc receptor block reagents to block Fc gamma receptors on THP-1 cell surface [whole molecule human IgG (Jackson Immunoresearch, Cat #009-000-003) for wells being tested with anti-MSR1-mFc antibodies or 2) whole molecule mIgG (Jackson Immunoresearch, Cat #015-000-003) for wells being tested with anti-MSR1-hFc antibodies. Antibody binding on HEK293.Myc.hMSR1, HEK293.mfMSR1 and HEK293 cells was tested without Fc receptor block reagents. […] Plates were then washed to remove unbound antibodies an AquaMax2000 plate washer with a cell washing head (MDS Analytical Technologies). […] Plates were washed and developed with Read Buffer (Meso Scale Diagnostics, Cat #R92TD-2) according to manufacturer's recommended procedure and luminescent signals were recorded with a SECTOR Imager 600 (Meso Scale Diagnostics). Luminescence intensity, measured in relative light units (RLU), was recorded to indicate the binding intensity of each antibody at the range of concentrations.

[2] = biological target: T2, full length human MSR1 with a …; assay: ECL cell binding, HEK293.Myc.hMSR1
Method: as §1

[3] = biological target: T3, mouse MSR1 on RAW264.7 cells; assay: flow cytometry, RAW264.7 cells, 10 ug/mL;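 note: antibodies bound to RAW264.7 cells for 30 min on ice after Fc block with mouse IgG, S/N is MFI relative to unstained cells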
Method: To block binding to Fc receptors, RAW264.7 cells were incubated for 30 minutes at 4° C. with 500 μg/mL mouse IgG (Jackson ImmunoResearch, Cat #015-000-003) diluted in staining buffer, while B16F10.9 cells remained in staining buffer. Following Fc receptor blocking, 10 μg/mL of anti-MSR1 antibodies or an isotype control antibody were added to the cells and were subsequently incubated for 30 minutes on ice. […] The signal to noise (S/N) was determined by calculating the ratio of the anti-MSR1 antibodies or the control antibodies MFI to the unstained sample MFI (Table 16).

[4] = biological target: T4, human MSR1 with a C-terminal Myc tag …; assay: cell-based or functional assay

Binder | MFI [3] | IC50 of inhibition of Dil-Acetylated LDL uptake [4] [nM] | IC50 of inhibition of Dil-Oxidized LDL uptake [4] [nM] | other results
H2aM21228N (antibody, mouse IgG2a, V domains shown, mouse IgG2a Fc) VH: VQLVESGGGLVQPGGSLRLSCAASGFTFSDHYMDWVRQAPGKGLEWVGRTRNKANSHTTEYAASVSGRFTISRDDSKNSLYLQMNSLKTEDTAVYYCTRAGIIGTLFDYWGQGTLVTVSS VL: not shown | – | – | – | binding signal ratio to isotype control (11 nM) [1]: 60 fold; binding signal ratio to isotype control (11 nM) [2]: 66 fold
H1H27731P-N297Q (antibody, V domains shown) VH: QLQLQESGPGLVKPSETLSLTCTVSGGSISRISYYWGWIRQPPGKGLEWIGSIYDSGSTYYNPSLKSRVTISIDTSKNQFSLKLSSVTAADTAVYYCVRYSSSSAFAFDYWGQGTLVTVSS VL: DIQMTQSPSSVSASVGDRVTITCRASQGISSWLAWYQQKPGKAPKLLIYAASSLQSGVPSRFSGSGSGTDFTLTISSLQPEDFATYYCQQANSFPFTFGPGTKVDIKR | – | 1.8 | > 10 | –
H1xH29283P2 (antibody, V domains shown, prefix H1xH not explained for the anti-MSR1 antibodies) VH: QVQLVQSGTEVKKPGSSVKVSCKASGGTFSRYTFSWVRQAPGQGLEWMGGIIPIFGTTNYAQKFQGRVTITTDESTSTVYMELSSLRSEDTAVYYCTRGGRYGWFDPWGQGTLVTVSS VL: not shown | – | – | – | binding signal ratio to isotype control (11 nM) [1]: 24 fold; binding signal ratio to isotype control (11 nM) [2]: 26 fold
H1H21227N (antibody, V domains shown) VH: QVQLVQSGAEVKKPGASVKVSCKVSGYTLTELSIHWVRQVPGKGLEWMGGFDPEEGETIFAQEFRDRVTLTEDTSPDTAYMELSSLKSEDAAVYYCTTPRYCNNGICYDYWGQGTLVTVSS VL: DIQMTQSPSSLSASVGDRVTITCRASQSISNYLNWYQQKPGKAPKLLIYTASSLQSGVPSRFSGSGSGTDFTLTISSLQTEDFATYYCQQSYSNFPITFGQGTRLEIKR | – | 2.1 | 2 | % Inhibition of Dil-Acetylated LDL uptake [4]: 65%; % Inhibition of Dil-Oxidized LDL uptake [4]: 89%
H1H21231N-N297Q (antibody, human IgG1, V domains shown, human IgG1 Fc with N297Q) VH: EVQLVESGGGLVQPGGSLRLSCAASGFTFSDHYMDWVRQAPGKGLEWVGRTRNKANSHTTEYTASVTGRFTISRDDSRNSLYLQMNSLKTEDTAVYYCVRAGIIGTLFDYWGQGTLVTVSS VL: DIQMTQFPSSLSASVGDRVTITCRASQSISSFLNWFQQKPGKAPKFLIYAASSLQSGVPSRFSGSGSGTDFTLTISSLQPEDFATYYCQQSYSSPPITFGQGTRLEIKR | 3580 | – | – | S/N [3]: 1
H1H21234N (antibody, V domains shown) VH: QVQLQESGPGLVKPSETLSLTCTVTGGSISRNYWSWIRQPPGKGLEWIGYIYYSGSIDYNPSLKSRVTISVDTSKNQFSLKLSSMTAADTAVYYCARDRWNWKYGMDVWGQGTTVIVSS VL: EIVLTQSPGTLSLSPGERATLSCRASQTVRNNYLAWYHQKPGQAPRLLIYGASSRATGIPDRFSGSGSGTDFTLTISRLEPEDFTVYYCHQYGNSPWTFGQGTKMEIKR | – | 0.71 | 4.3 | –
H2aM25695N (antibody, mouse IgG2a, V domains shown, mouse IgG2a Fc) VH: QVQLQESGPGLVKPSETLSLTCTVTGGSISRNYWSWIRQPPGKGLEWIGYIYYSGSINYNPSLKSRVTISVDMSKNQFSLKLNSVTAADTAVYYCARDRWNWKYGMDVWGQGTTVIVSS VL: EIVLTQSPGTLSLSPGERATLSCRASQTVRNSYLAWYHQKPGQAPRLLIYGASSRATGIPDRFSGSGSGTDFTLTISRLEPEDFAVYYCQQYGSSYWTFGQGTKMEIKR | – | – | – | binding signal ratio to isotype control (11 nM) [1]: 45 fold; binding signal ratio to isotype control (11 nM) [2]: 35 fold
H1xH27759P2 (antibody, V domains shown, prefix H1xH not explained for the anti-MSR1 antibodies) VH: EVQLVESGGGFVQPGGSLRLSCAASGFTFSSYAMSWVRQAPGKGLEWVSAISGTGSNTYYADSVKGRFTISRDNSKNTLYLQMNSLRAEDTAVYYCAKDRVTTVTYYFDYWGQGTLVTVSS VL: not shown | – | – | – | binding signal ratio to isotype control (11 nM) [1]: 21 fold; binding signal ratio to isotype control (11 nM) [2]: 22 fold

Second part, led by results:

MFI [3] | IC50 of inhibition of Dil-Acetylated LDL uptake [4] [nM] | IC50 of inhibition of Dil-Oxidized LDL uptake [4] [nM] | Binder | other results
3430 | – | – | H1H27760P2-N297Q (antibody, human IgG1, V domains shown, human IgG1 Fc with N297Q; also called H1H27760P-N297Q) VH: EVQLVESGGGLVQPGRSLRLSCAASGFTFDAYAMHWVRQAPGKGLEWVSGISWNSGSIGYADSVKGRFTISRDNAKNSLYLQMNSLREEDTALYYCAKDKILELYYYGMDVWGQGTTVTVSS VL: not shown | –
3420 | – | – | H1H27732P-N297Q (antibody, human IgG1, V domains shown, human IgG1 Fc with N297Q) VH: QLQLQESGPGLVKPSETLSLTCTVSGGSISSSTYYWGWIRQPPGKGLEWIGSFYYSGSTYYNPSLKSRVTISVGTSKNQFSLKLSSVTAADTAVYFCARGGLLGRPFVIWGQGTMVTVSS VL: DIQMTQSPSSLSASVGDRVTITCRASQGIRNDLGWYQQKPGKAPKRLIYAASSLQSGVPSRFSGSGSGTEFTLTISSLQPEDFATYYCLQHNSYPLTFGGGTKVEIKR | –
3550 | – | – | H1H27736P-N297Q (antibody, human IgG1, V domains shown, human IgG1 Fc with N297Q) VH: EVQLVESGGGLVQPGGSLRLSCAASGFTFSSYAMSWVRQAPGKGLEWVSSISGSGDSTFYTDSVKGRFTISRDISKNTLYLQMNSLRAEDTAVYYCAKDRLLWFGDLISPFHYWGQGTLVTVSS VL: EIVLTQSPGTLSLSPGERATLSCRASQSVSNIYLAWYQQKPAQAPRLLIYGASSRATGIPDRFSVSGSGTDFTLTISRLEPEDFAVYYCQQYGSSPRTFGQGTKVEIKR | –
3790 | – | – | H1H27749P-N297Q (antibody, human IgG1, V domains shown, human IgG1 Fc with N297Q) VH: QVQLQESGPGLVKPSETLSLTCTVSDGSISSYYWSWIRQPPGRGLEWIGFIYYSGSTSYNPSLKSRVTISVDTSMSQFSLKLRSVTAADTAVYYCARGSPFDYWGPGTLVTVSS VL: EIVLTQSPGTLSLSPGERATLSCRASQSVSSSYLAWYQQRPGQAPSLLISGASRRATGIPDRFSGSGSGTDFTLTIRRLEPEDFAMYYCQQYGSSPPTFGGGTKVEIKR | –
– | 1.2 | – | H1H27729P-N297Q (antibody, V domains shown) VH: QVQLVESGGGLVKPGGSLRLSCAASGFIFSDYYMSWIRQAPGKGLEWVSYISSSGTTIYGDSVKGRFTMSRDNAKNSLYLQMNSLRAEDTAVYYCARNYALFDYWGQGTLVTVSS VL: DIQMTQSPSSLSASVGDRVTITCQASQDISKYLNWYQQKPGKAPKLLIYYTSNLETGVPSRFSGSGSGTDFTFTISSLQPEDIATYYCHQSDYLPFTFGPGTKVDIKR | –
– | 2.4 | 1.8 | H1H21227N-N297Q (antibody, V domains shown) VH: QVQLVQSGAEVKKPGASVKVSCKVSGYTLTELSIHWVRQVPGKGLEWMGGFDPEEGETIFAQEFRDRVTLTEDTSPDTAYMELSSLKSEDAAVYYCTTPRYCNNGICYDYWGQGTLVTVSS VL: DIQMTQSPSSLSASVGDRVTITCRASQSISNYLNWYQQKPGKAPKLLIYTASSLQSGVPSRFSGSGSGTDFTLTISSLQTEDFATYYCQQSYSNFPITFGQGTRLEIKR | % Inhibition of Dil-Acetylated LDL uptake [4]: 65%; % Inhibition of Dil-Oxidized LDL uptake [4]: 94%
– | 3.5 | 3.6 | H1H21231N (antibody, V domains shown) VH: EVQLVESGGGLVQPGGSLRLSCAASGFTFSDHYMDWVRQAPGKGLEWVGRTRNKANSHTTEYTASVTGRFTISRDDSRNSLYLQMNSLKTEDTAVYYCVRAGIIGTLFDYWGQGTLVTVSS VL: DIQMTQFPSSLSASVGDRVTITCRASQSISSFLNWFQQKPGKAPKFLIYAASSLQSGVPSRFSGSGSGTDFTLTISSLQPEDFATYYCQQSYSSPPITFGQGTRLEIKR | % Inhibition of Dil-Acetylated LDL uptake [4]: 63%; % Inhibition of Dil-Oxidized LDL uptake [4]: 78%
4570 | – | – | H1H27756P-N297Q (antibody, human IgG1, V domains shown, human IgG1 Fc with N297Q) VH: QVQLVESGGGVVQPGRSLRLSCAASGFTFSNYDMHWVRQAPGKGLEWMAVISYDGINKYYADSVKGRFTISRDNSKNTLYLQMNSLRAEDTAVYYCAKGTYSWYFDLWGRGTLVTVSS VL: not shown | –
